The data set can be described thus: soluble on expression in E. coli; label from the status in PepcDB or PDB records.
Regarding “MDDELRGLLARYARGELSADDARRAILRYPKWRVAEIDGELETVALDDGTPMLIAESSASDGREYSGLELVRDIAPLVGGLSFDPDEPWGSAFRPGALPELQNWARTVELEDAVAKPGPGQRDLLYEGPWWVAVSPGTGRPAVHRADGLDVITIMTAPDAAATFRRTERHRGLDVVRLGPALWGDLAKRSDFDGVRLNPLRPLAQLWPPHVPAMLVAGCDPRPNAEPLPARTVAEIHLWLDQHGARQEKRELSNRATPVGEVTVARAWWNYDRREIAFTRVAPASDTEGLGSVPSRILCAGKLRQSIQSKLAGLPRLTWRADAWHRQRAALAVGWALELEKLVCGERVPFAALRTPEGAHLWHLEPQAFTARAIRKLRDRAASFR”, the “soluble on expression in E. coli” value is “soluble”. In the case of “MDDERKRKKYTLYLHPEKAADFQTLEAIESVPRSERGELFRNAFISGMALHQLDPRLPVLLTAILSEEFSADQVVTLLSQTTGWKPSQADIRAVLTELGASQSVEKMPPSATDSVQEAMNDVRLKMKKLF” it was “soluble”; in that of “MDDFATSSRVFEDDNDAFDFNPLEDFAFDDIDDDDDIVSGILDDGPYSIPNADNKPKFKSVSFDNAETPEERIETLFNQMPTQDDLLLGILDASQTPIFTDDLEQKVEELKQHHHSVYSPMSYCRLLERAGAIEQTNNEGLPLKEVEVEPDKVVVEGVEYWKVAAAPDVYWTATPAGLAHFQAYQPMELLRQMVQNEPQYEEIFRMVLSATAADGGESVKNIDDLVSDDPILQSPRRYAMYFIDKLERAGGIQWRGAWVAIQAGKDFLAELNA”, “not soluble”. Turning to “MDDNQIINLFFQRNEDAINAVDEKYGSKLNALAANILQSREDGLECVNDMYMKAWNSIPPARPEYLFAFLATSARNIAIDMIRKNNAGKRQAKVVELTKELEECIGDGGLQTHLDKEDIGEMLSHFLETVDKNKRIIFLRRYWYSDSIKDISERMQMSESAVKVTLHRTRKELRKYLESEGLYL”, the “soluble on expression in E. coli” value is “not soluble”.

On to “MDDRLFRNAMGKFATGVTVITTELNGAVHGMTANAFMSVSLNPKLVLVSIGEKAKMLEKIQQSKKYAVNILSQDQKVLSMNFAGQLEKPVDVQFEELGGLPVIKDALAQISCQVVNEVQAGDHTLFIGEVTDIKITEQDPLLFFSGKYHQLAQNEKVETSS”, for which the “soluble on expression in E. coli” value was “soluble”. As to “MDENLRQLAESILTDLTQDAPIANTMLKAKVFASKKNDKDLLSWIEHELNGYEENLPKYRLLDAGVKVDIHRGFQEVLGYNYPMGMVKDEKVRERLLHLPIHGSISEVEELSTKSGEGTIHIDIPIEIWYHHMRHCINGDIQRAYQFATVASVKQIMVKIKSLLIDYFLKIDKGESLSFLSLIKKETPTMQIIAGIVNTGS”, the “soluble on expression in E. coli” value is reported as “not soluble”. In the case of “MDERRTAEERRERMLPETMPVCPVRGSVIYPTMVMPIDAGRPISIRAIDEALARDRVLLIVSQRDKEVETPRPSDLFEVGTACNILKMRKNPDGSVQVLVQAFARVRVREWLDLGDHLEARGEVLADEPGEPILVKALVREVKDKFQALLKEGKYLAPEVAQFILNLEDPSQLADYVAFHMDFRLEDKQKVLETANVAERLRAVLVLLEAELALIETQRRIQQQVKEEIDRNQREYFLREQMKAIQRELHGEEGEQEVEEFRRKLEALDLPPVVRQEAERELNRFARMHPDSAEASVIRTYLDWIVNLPWNTRTEDNLDLERAKEILERDHYGLEKVKDRVLEYLAVRKLKAERAKRGEIPPDEVNKGPILLFVGPPGVGKTSIAKSIAEALGRKYVRVSLGGVRDESDIRGHRRTYIGAMPGRIIQGLRQAGTKNPVFLLDEVDKLGISYQGDPAAALLEVLDPAQNKEFVDHYLGVPFDLSEVMFICTANFPQNIPAPLYDRMEPIEFTSYTEQEKLEIAKRYLLPRQLKENGLEPEQVVVTEAALTRLITHYTREAGVRQLEREIGALLRKAARRILEEGKKRVRITEKDLEAYLGPPRFLPETEAREPQVGVATGMYYTPVGGDIMFVEVSVMPGKGNLILTGQLGDVMKESARAALSYAKKNALRFGIPLEKFDKSDIHIHVPAGAIPKEGPSAGVALVSALVSALTEVPVRHDIAMTGEITLTGRVLPIGGVKEKVLGARRAGIREVILPKLNEPDLSDIPKPLRQNMTFHFVEHLDQVLDLALVGGLKALEERGRRPRSARKKKELVAHA” it was “soluble”; in that of “MDESAALRAFQDALRTQRPEFGQFFLARLLGLDISYPDGQCLIVFEPQDFLFNPQGSLHGGIIATVMDISMGHLLNHVQGAGLTLEMKTQYLKAVHQGTVYCRGEFLQRGRSVSFLKSTLTDAQGEPLAMATSTWKALSPLEHHHHHH”, “soluble”. Consider “MDFNLNDEQELFVAGIRELMASENWEAYFAECDRDSVYPERFVKALADMGIDSLLIPEEHGGLDAGFVTLAAVWMELGRLGAPTYVLYQLPGGFNTFLREGTQEQIDKIMAFRGTGKQMWNSAITEPGAGSDVGSLKTTYTRRNGKIYLNGSKCFITSSAYTPYIVVMARDGASPDKPVYTEWFVDMSKPGIKVTKLEKLGLRMDSCCEITFDDVELDEKDMFGREGNGFNRVKEEFDHERFLVALTNYGTAMCAFEDAARYANQRVQFGEAIGRFQLIQEKFAHMAIKLNSMKNMLYEAAWKADNGTITSGDAAMCKYFCANAAFEVVDSAMQVLGGVGIAGNHRISRFWRDLRVDRVSGGSDEMQILTLGRAVLKQYR”, for which the “soluble on expression in E. coli” value is on record as “soluble”. On to “MDGAQPKTNFFERLIARLAREPDSAEDVLNLLRQAHEQEVFDADTLLRLEKVLDFSDLEVRDAMITRSRMNVLKENDSIERITAYVIDTAHSRFPVIGEDKDEVLGILHAKDLLKYMFNPEQFHLKSILRPAVFVPEGKSLTALLKEFREQRNHMAIVIDEYGGTSGLVTFEDIIEQIVGEIEDEFDEDDSADNIHAVSSERWRIHAATEIEDINTFFGTEYSSEEADTIGGLVIQELGHLPVRGEKVLIGGLQFTVARADNRRLHTLMATRVK”, for which the “soluble on expression in E. coli” value is reported as “not soluble”. For “MDGSFVQHSVRVLQELNKQREKGQYCDATLDVGGLVFKAHWSVLACCSHFFQRIYGDGTGGSVVLPAGFAEIFGLLLDFFYTGHLALTSGNRDQVLLAAKELRVPEAVELCQSFQPQTSVGQAQSGLGQPASQDVKSHLKEPTDLDEEEVFKTLSLASVDQEPRDTEQPQLGTPAQSSTAFLCGKLTQALKPSPSEDKESEDCKEPPRPFEAGGAPLQGESNEWEVVVQVEDDRDGDYVSEPETVLTRRKSKVIRKPCAAEPALGAGSLTAEPTDSRKGAAVPVECPTCHKKFLSKYYLKVHNRKHTGEKPFECPKCGKCYFRKENLLEHEARNCMNRSEQVFTCSVCQETFRRRMELRLHMVSHTGEMPYKCSSCSQQFMQKKDLQSHMIKLHGAPKPHAVSASQGWGSGGSGTAQSCPHLDVLPLPVSPTCSAPLVPSASCLGRSYSCTRLLSIVEKSSLCVRNAGTGPRAATGCRCTSRPSTGMKGLMSVSSAAMPSPRRPTSTCTCARTPARSLSSATSVGRPSAPKFGQAQPHPHGREAFQL”, the “soluble on expression in E. coli” value is recorded as “soluble”. In the case of “MDHAPERFDATPPAGEPDRPALGVLELTSIARGITVADAALKRAPSLLLMSRPVSSGKHLLMMRGQVAEVEESMIAAREIAGAGSGALLDELELPYAHEQLWRFLDAPVVADAWEEDTESVIIVETATVCAAIDSADAALKTAPVVLRDMRLAIGIAGKAFFTLTGELADVEAAAEVVRERCGARLLELACIARPVDELRGRLFF” it was “not soluble”; in that of “MDHFIKLLPKLTPHLRKGDCGKMGVIGGSLEYTGAPYFAASSASRLGADLIHIFCDPDAAQVIKGYSPDLIVHPGMTANSIIPKLSRMDAIVIGPGLGRNPNIWPLMQELFEFVRNRDVPFVIDGDGLWFVSEHIEKFPRQMSATVLTPNIVEFSRLCKSALGEEDVLNVRNNSQLQHLAAELSRKMNVTIYLKGEVDLVVTPNGEVSKCSTESSLRRCGGQGDVTAGSLGLFLYWAKKNLGDDWTSAHHEAGIASSWLVRTAGRRAFEKHGRSMNTPLLLDEIPKLVRDVETREMKDTVHTDSSKH”, “not soluble”. In the case of “MDHHSKAKELLQQRDELDGKIKELMLVLETNNSTMDSPLLDAEGYPLNTIDVYAVRHARHDLICLRNDRAALTEKIVVEMENENKEVSGQTATSEEKPVHRTSNEPFVKISSVVELSPADIGGFRKDDLIIQYGNLHHGNFNDMQEVAQITKQSEDKIIRVTVIRENRPVRLEICPKKWSGPGLLGCNIVPISGANV” it was “not soluble”; in that of “MDIEIENHPLEPFLPANARLLMLGSFPPQKKRWSMDFYYPNLNNDMWRIVGLLFFNNKDYFLNETRKAFCRERIISFLNDKGIALFDTASAIRRLQDNASDKFLEVVQPTDISRLLGQLPECKAIVTTGQKATDTLRAQFEVEEPKVGDFSEFVFDGRPVRLYRMPSSSRAYPLALDKKAAAYRTMYQDLQMLNIELEHHHHHH”, “soluble”; in that of “MDIGRAVRFLRKRQGWTQQQLADFSHTSKSNISNLENGNQGYSPAILEYLAKAFNCSVSQIFLLAENMDNEGNLLKDWQHMPIDVLFIQLPQEVQCQLKHLIFTLIDTKK”, “not soluble”.

For “MDIKACYQNAKALLEGHFLLSSGFHSNYYLQSAKVLEDPKLAEQLALELAKQIQEAHLNIECVCSPAIGGILAGYELARALGVRFIFTERVDNTMALRRGFEVKKNEKILVCEDIITTGKSAMECAKVLEEKGAQIVAFGALANRGICKRAHSHLKAQEGACLPSHLPLFALEDFVFDMHKPSSCPLCATSVAIKPGSRGN”, the “soluble on expression in E. coli” value is listed as “not soluble”. For “MDIKNWSVYNKLYVGGGISDDVQTNTSETYDKEKDCWTLDNGHLVPHNYIMYKCEPVKHRYPLEKTQYTNDFLKYLESFIGS”, the “soluble on expression in E. coli” value is “not soluble”. For “MDINLEYSLHDTQFFWQALSIRYHHAQRLKQLQRELAGFEQIKKFTLLPEAFSMEAGLITPTLKQRCKMIYHKYAHEINAMYNNLEHHHHHH”, the “soluble on expression in E. coli” value is recorded as “not soluble”. In the case of “MDIRQMNRTHLDHWRGLRKQLWPGHPDDAHLADGEEILQADHLASFIAMADGVAIGFADASIRHDYVNGCDSSPVVFLEGIFVLPSFRQRGVAKQLIAAVQRWGTNKGCREMASDTSPENTISQKVHQALGFEETERVIFYRKRC”, the “soluble on expression in E. coli” value is given as “not soluble”. As for “MDIRYFGTTPRYSEAVGANGLIFLSGMVPENGETAAEQTADVLAQIDRWLAECGSDKAHVLDAVIYLRDMGDYAEMNGVWDAWVAAGRTPARACVEARLARPEWRVEIKITAVKRDAATA”, the “soluble on expression in E. coli” value was “not soluble”. As to “MDIVQLGPAELKAWMDEGRMFCLLDVRTDEETAVCSLPNALHIPMNLIPLRQNELPDDVPLVVYCHHGIRSLHTAMYLADAGFENLYNLQGGIDAWAAEIDGNMMRY”, the “soluble on expression in E. coli” value is “not soluble”. In the case of “MDKMFKRTLLGAAVAMASTGAFAASETGAIGVLSDFNVQAYGVAAISAFYQEDSNGYDYENESRIGFRASKDMFDNVNVFMQIESGYVGEDGKGSTLGARDTFLGLQGDWGKVRFGRMLTPLYEIVDWPYSNPGLGRVFDWGGDVAGHYDRKGDIARYDSPAFGGLTFNISAGRGDVGTKSSNHFGAAAHYNAADIVTFHVGYENNSNFKYDYKTKDTAGKDVDNTFLTDATAYIVGFELPLPAGFGLAGAYKYTEGASKTVKGQEGEQGQYSLIGQYWNGPWGFKVGYAANLESEVNGVEQKDDDEVLSAQLMYVKNGFVPYIRVGQHDAYDSADKKGFVRVGLEYGF” it was “not soluble”; in that of “MDKNETRATIIRIGTDLISRQGFNATGIDAVLKEAGVPKGSFYYYFRSKEEFGLAVIDHFAERYDQRLDTFLNDEEVTPLNRIRNYLESALARLEQNQCSKGCLIGNLGQELADQHERFRGRLDEIFRSWKDRFAACLREAQRGGELAPELDAGVAAGFILSGLEGAILRTKVMKSPQPLRDFIEILFASVLRRQA”, “not soluble”.

The values above are taken from the DeepSol protein solubility set.
